Tests used:
[1] = target: LRP2 CR89 Y1042W (human) (UniProt P98164); assay: solid-phase assay; OD at the highest ligand concentration as percent of the highest OD of all ligands
[2] = target: recombinant human LRP1 ligand binding cluster II (amino acids 786-1165, C-terminal Fc) (human); assay: inhibitor pre-incubated with coated LRP1 cluster II-Fc, washed, then RAP d3 added; inhibition of RAP d3 binding
[3] = target: recombinant human LRP1 ligand binding cluster II (amino acids 786-1165, C-terminal Fc) (human); assay: competition ELISA, inhibition of RAP d3 (2 nM) binding to coated LRP1 cluster II-Fc

recombinant human LRP1 ligand binding cluster II (amino acids 786-1165, C-terminal Fc) (human), sequence (Q07954 786-1165): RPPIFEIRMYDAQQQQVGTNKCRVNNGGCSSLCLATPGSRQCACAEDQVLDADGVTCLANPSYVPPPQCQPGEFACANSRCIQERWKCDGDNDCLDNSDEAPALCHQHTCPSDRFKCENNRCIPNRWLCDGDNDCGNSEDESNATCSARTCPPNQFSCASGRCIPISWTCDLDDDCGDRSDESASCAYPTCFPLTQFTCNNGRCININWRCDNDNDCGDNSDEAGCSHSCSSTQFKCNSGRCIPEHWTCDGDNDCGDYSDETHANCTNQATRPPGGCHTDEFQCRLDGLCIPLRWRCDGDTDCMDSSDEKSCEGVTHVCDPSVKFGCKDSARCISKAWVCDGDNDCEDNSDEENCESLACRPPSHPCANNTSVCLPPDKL
mature human RAP (full-length), sequence (P30533 35-357): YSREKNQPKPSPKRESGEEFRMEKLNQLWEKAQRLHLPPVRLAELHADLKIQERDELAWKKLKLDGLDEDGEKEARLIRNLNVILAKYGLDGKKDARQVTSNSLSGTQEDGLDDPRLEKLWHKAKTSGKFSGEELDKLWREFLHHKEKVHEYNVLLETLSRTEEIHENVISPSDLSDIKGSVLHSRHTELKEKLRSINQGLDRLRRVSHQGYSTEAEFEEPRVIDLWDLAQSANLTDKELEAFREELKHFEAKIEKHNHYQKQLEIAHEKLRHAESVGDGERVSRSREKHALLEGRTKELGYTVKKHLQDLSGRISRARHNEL
LRP2 CR89 Y1042W (human), sequence (P98164 1025-1102 Y1043W limits assumed): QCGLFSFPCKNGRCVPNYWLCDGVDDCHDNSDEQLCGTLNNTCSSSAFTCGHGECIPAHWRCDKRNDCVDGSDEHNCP
RAP d3 (wild-type domain 3 of human RAP, amino acids 201-319 of mature RAP), sequence (P30533 235-353 A264E): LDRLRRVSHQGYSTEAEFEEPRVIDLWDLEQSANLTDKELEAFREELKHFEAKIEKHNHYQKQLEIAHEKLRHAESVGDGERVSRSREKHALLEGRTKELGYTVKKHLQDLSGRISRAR

Substance	% max bind [1]	EC50 [2]	EC50 [3]	fold better EC50 than monomeric mRAPc peptide [3]
RAP d3 (wild-type domain 3 of human RAP, amino acids 201-319 of mature RAP) (from UniProt P30533 235-353) (ligand)	9%	–	–	–
mature human RAP (full-length) (from UniProt P30533 35-357) (ligand)	–	0.3 nM	0.5 nM	64 fold
